Measured values: patent US7432308B2, “Therapeutic compositions for the treatment of a respiratory tract disease” (Universiteit Gent, priority 2001, dated 2008)
Each block holds one molecule with its values, some of them ahead of it.

Legend:
[1] = tested on: actin; settings: Shu et al.; cited from earlier work
[2] = tested on: DNA (salmon sperm DNA from Sigma); assay: Effect of K+ and Mg2+ on DNAse activity: decrease in viscosity of a standardised DNA digest (capillary viscosimeter); type: biochemical
Procedure: The viscosity of DNA and DNA/actin solutions was measured with a calibrated capillary viscosimeter (Schott Geräte, Hofheim, Germany) equipped with an automated apparatus (Lauda, Köningshofen, Germany). The capillary viscosimeter was placed in a water bath (20.00° C.±0.05° C.) and the outflow times (t in s) were determined automatically. The viscosity (η) of the solutions is related to t by: [formula] where k and B are known constants. The effect of Mg^2+ and K^+ ions on the activity of DNAse (measured as decrease in viscosity) was determined by changing the Mg^2+ and K^+ concentration in a standardised DNA digest. DNA (salmon sperm DNA from Sigma) was digested (10 μ[…], 2,3 mg/ml DNA, 70 mM NaCl, and 3 mM CaCl2, pH 7.0) in order to determine the change in viscosity of the DNA solution.

[3] = tested on: DNA in the presence of rabbit skeletal actin; assay: Influence of actin polymerisation on DNAse activity: decrease in viscosity of DNA/actin solutions; type: biochemical
Procedure: The viscosity of DNA and DNA/actin solutions was measured with a calibrated capillary viscosimeter (Schott Geräte, Hofheim, Germany) equipped with an automated apparatus (Lauda, Köningshofen, Germany). The capillary viscosimeter was placed in a water bath (20.00° C.±0.05° C.) and the outflow times (t in s) were determined automatically. The viscosity (η) of the solutions is related to t by: […] Biol. Chem. (1971) 246: 4866-4871) (6,4 μg/ml […], 1.5 mg DNA/ml and 1.1 mg actin/ml 70 mM NaCl, 3 mM CaCl2, 0.35 mM ATP, 3.2 mM TRIS/HCl, 0.13 mM DTT, and 0.006% NaN3, pH 7,0). K^+ and Mg^2+ were supplied as K2HPO4 and MgCl2 respectively.

[4] = DNA/actin solution 1: K+ 14.0 mM, Mg2+ 0.90 mM
[5] = DNA/actin solution 2: K+ 26.0 mM, Mg2+ 0.90 mM
[6] = DNA/actin solution 3: K+ 26.0 mM, Mg2+ 2.70 mM

Molecule: O=P([O-])([O-])O.[K+].[K+] [K+, potassium hydrogenophosphate]
concentration giving maximal actin polymerisation [1]: 200 mM

Molecule: [Cl-].[Cl-].[Mg+2] [Mg^2+, magnesium chloride]
concentration giving maximal actin polymerisation [1]: 2 mM

η at t = 10 minutes ([2]; DNA solution 1: K+ 14.0 mM, Mg2+ 1.65 mM, η 31.5 at t = 0): 1.1 mm^2/s | η at t = 10 minutes ([2]; DNA solution 2: K+ 26.0 mM, Mg2+ 1.65 mM, η 31.5 at t = 0): 1.1 mm^2/s | η at t = 10 minutes ([2]; DNA solution 3: K+ 20.0 mM, Mg2+ 0.90 mM, η 33.9 at t = 0): 1.1 mm^2/s | η at t = 10 minutes ([2]; DNA solution 4: K+ 20.0 mM, Mg2+ 2.70 mM, η 33.9 at t = 0): 1.1 mm^2/s | η at t = 20 min [3, 4]: 9.4 mm2/s | η at t = 30 min [3, 4]: 8.6 mm2/s | η at t = 10 min ([3]; DNA/actin solution 1: K+ 14.0 mM, Mg2+ 0.90 mM, η 14.3 at t = 0): 9.8 mm2/s | η at t = 30 min [3, 5]: 7.7 mm2/s | η at t = 10 min [3, 6]: 6.1 mm2/s | η at t = 20 min [3, 6]: 5.8 mm2/s | η at t = 30 min [3, 6]: 5.5 mm2/s
B1: rhDNAse I: Recombinant human DNAse I, commercially available under the trade name Pulmozyme, also designated dornase alpha (protein, UniProt P24855 23-282, looked up)
Deoxyribonuclease-1: LKIAAFNIQTFGETKMSNATLVSYIVQILSRYDIALVQEVRDSHLTAVGKLLDNLNQDAPDTYHYVVSEPLGRNSYKERYLFVYRPDQVSAVDSYYYDDGCEPCGNDTFNREPAIVRFFSRFTEVREFAIVPLHAAPGDAVAEIDALYDVYLDVQEKWGLEDVMLMGDFNAGCSYVRPSQWSSIRLWTSPTFQWLIPDSADTTATPTHCAYDRIVVAGMLLRGAVVPDSALPFNFQAAYGLSDQLAQAISDHYPVEVMLK
modifications: dornase alfa
notes: Recombinant human DNAse I, commercially available under the trade name Pulmozyme, also designated dornase alpha
decrease in viscosity at t = 10 minutes ([2]; DNA solution 1: K+ 14.0 mM, Mg2+ 1.65 mM): 97% | decrease in viscosity at t = 10 minutes ([2]; DNA solution 2: K+ 26.0 mM, Mg2+ 1.65 mM): 97% | decrease in viscosity at t = 10 minutes ([2]; DNA solution 3: K+ 20.0 mM, Mg2+ 0.90 mM): 97% | decrease in viscosity at t = 10 minutes ([2]; DNA solution 4: K+ 20.0 mM, Mg2+ 2.70 mM): 97% | viscosity η of the DNA solution after digestion ([2]; all tested K+ and Mg2+ concentrations, value is near the viscosity of water): ~1 mm^2/s | decrease in viscosity at t = 10 min [3, 4]: 32% | decrease in viscosity at t = 20 min [3, 4]: 34% | decrease in viscosity at t = 30 min [3, 4]: 40% | decrease in viscosity at t = 30 min [3, 5]: 46% | decrease in viscosity at t = 10 min [3, 6]: 58% | decrease in viscosity at t = 20 min [3, 6]: 59% | decrease in viscosity at t = 30 min [3, 6]: 61% | DNAse activity in DNA/actin solutions ([3]; at high levels of Mg^2+ and K^+): highest
